# Laboratory results reported in article PMC9352680, “A comprehensive thermodynamic model for RNA binding by the Saccharomyces cerevisiae Pumilio protein PUF4”.
# Where a chain is given by its changes, count along the chain named. Numbers in names are those of the source.
# T1: PUF4 RNA-binding domain (Saccharomyces cerevisiae, UniProt P25339 537-888)
# T1 sequence: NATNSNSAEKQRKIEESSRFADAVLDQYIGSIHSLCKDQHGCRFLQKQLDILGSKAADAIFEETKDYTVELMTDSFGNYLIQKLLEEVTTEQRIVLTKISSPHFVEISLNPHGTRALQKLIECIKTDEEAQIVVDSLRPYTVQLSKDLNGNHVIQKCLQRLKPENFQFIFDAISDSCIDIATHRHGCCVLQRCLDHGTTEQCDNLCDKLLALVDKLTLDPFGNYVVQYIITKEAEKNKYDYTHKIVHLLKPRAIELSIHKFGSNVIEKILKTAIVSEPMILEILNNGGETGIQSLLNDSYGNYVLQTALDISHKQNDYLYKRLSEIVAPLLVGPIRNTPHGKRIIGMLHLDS
# B1: Ic_S2_P4E.1_K4.1_C4.1_H4.1_A4.1_[T5A]_[A6C]_F4.1_[T8G]_[A9G]_T4.1 (ssRNA)
# RNA: UUUGAUUAAUAUGAUAUCGUUCUUUCUUGUAACUGGUUCUUUCUCGAUAUCAUAUUAAUCUUU
# B2: Ic_S2_P4E.1_K4.1_C4.1_H4.1_A4.1_[T5A]_[T7A]_F4.1_[A9G]_T4.1 (ssRNA)
# RNA: B1 RNA with C33A, U34A, G35U
# B3: Ic_S2_P4E.1_K4.1_C4.1_H4.1_A4.1_[T5A]_[A6T]_[T7C]_F4.1_[T8C]_[A9T]_T4.1 (ssRNA)
# RNA: B1 RNA with C33U, U34C, G35C, G36U
# B4: Ic_S2_P4E.1_K4.1_C4.1_H4.1_A4.1_[T5A]_[A6T]_[T7A]_F4.1_[T8A]_T4.1 (ssRNA)
# RNA: B1 RNA with C33U, U34A, G35A, G36A
# B5: Ic_S2_P4E.1_K4.1_C4.1_H4.1_A4.1_[T5A]_[A6T]_F4.1_[T8C]_[A9T]_T4.1 (ssRNA)
# RNA: B1 RNA with C33U, G35C, G36U
# B6: Ic_S2_P4E.1_K4.1_C4.1_H4.1_A4.1_[T5A]_[A6T]_[T7C]_F4.1_[T8G]_[A9T]_T4.1 (ssRNA)
# RNA: B1 RNA with C33U, U34C, G36U
# B7: Ic_S2_P4E.1_K4.1_C4.1_H4.1_A4.1_[A6G]_[T7G]_F4.1_[T8C]_[A9G]_T4.1 (ssRNA)
# RNA: B1 RNA with A32U, C33G, U34G, G35C
# B8: Ic_S2_P4E.1_K4.1_C4.1_H4.1_A4.1_[T5A]_F4.1_[T8A]_[A9C]_T4.1 (ssRNA)
# RNA: B1 RNA with C33A, G35A, G36C
# B9: Ic_S2_P4E.1_K4.1_C4.1_H4.1_A4.1_[T5A]_F4.1_[T8A]_[A9G]_T4.1 (ssRNA)
# RNA: B1 RNA with C33A, G35A
# B10: Ic_S2_P4E.1_K4.1_C4.1_H4.1_A4.1_[T5A]_[A6T]_[T7C]_F4.1_[T8C]_[A9G]_T4.1 (ssRNA)
# RNA: B1 RNA with C33U, U34C, G35C
# B11: Ic_S2_P4E.1_K4.1_C4.1_H4.1_A4.1_[A6G]_[T7C]_F4.1_[T8C]_[A9T]_T4.1 (ssRNA)
# RNA: B1 RNA with A32U, C33G, U34C, G35C, G36U
# B12: Ic_S2_P4E.1_K4.1_C4.1_H4.1_A4.1_[T5A]_[A6T]_[T7G]_F4.1_[T8C]_[A9T]_T4.1 (ssRNA)
# RNA: B1 RNA with C33U, U34G, G35C, G36U
# B13: Ic_S2_P4E.1_K4.1_C4.1_H4.1_A4.1_[T5A]_[A6T]_[T7G]_F4.1_T4.1 (ssRNA)
# RNA: B1 RNA with C33U, U34G, G35U, G36A
# B14: Ic_S2_P4E.1_K4.1_C4.1_H4.1_A4.1_[T5A]_[T7C]_F4.1_[T8A]_T4.1 (ssRNA)
# RNA: B1 RNA with C33A, U34C, G35A, G36A
# B15: Ic_S2_P4E.1_K4.1_C4.1_H4.1_A4.1_[A6G]_[T7C]_F4.1_[T8C]_T4.1 (ssRNA)
# RNA: B1 RNA with A32U, C33G, U34C, G35C, G36A
# B16: Ic_S2_P4E.1_K4.1_C4.1_H4.1_A4.1_[T5A]_[A6T]_[T7C]_F4.1_[A9T]_T4.1 (ssRNA)
# RNA: B1 RNA with C33U, U34C, G35U, G36U
# B17: Ic_S2_P4E.1_K4.1_C4.1_H4.1_A4.1_[T5A]_[A6C]_F4.1_[T8C]_T4.1 (ssRNA)
# RNA: B1 RNA with G35C, G36A
# B18: Ic_S2_P4E.1_K4.1_C4.1_H4.1_A4.1_[T5A]_[T7C]_F4.1_[T8A]_[A9G]_T4.1 (ssRNA)
# RNA: B1 RNA with C33A, U34C, G35A
# B19: Ic_S2_P4E.1_K4.1_C4.1_H4.1_A4.1_[T5A]_[A6T]_F4.1_[A9T]_T4.1 (ssRNA)
# RNA: B1 RNA with C33U, G35U, G36U
# B20: Ic_S2_P4E.1_K4.1_C4.1_H4.1_A4.1_[T5A]_[T7A]_F4.1_[A9C]_T4.1 (ssRNA)
# RNA: B1 RNA with C33A, U34A, G35U, G36C
# B21: Ic_S2_P4E.1_K4.1_C4.1_H4.1_A4.1_[T5A]_[A6T]_[T7C]_F4.1_[T8A]_[A9T]_T4.1 (ssRNA)
# RNA: B1 RNA with C33U, U34C, G35A, G36U
# B22: Ic_S2_P4E.1_K4.1_C4.1_H4.1_A4.1_[T5A]_[T7C]_F4.1_[A9T]_T4.1 (ssRNA)
# RNA: B1 RNA with C33A, U34C, G35U, G36U
# B23: Ic_S2_P4E.1_K4.1_C4.1_H4.1_A4.1_[T5A]_[A6C]_F4.1_[T8A]_[A9G]_T4.1 (ssRNA)
# RNA: B1 RNA with G35A
# B24: Ic_S2_P4E.1_K4.1_C4.1_H4.1_A4.1_[A6G]_[T7G]_F4.1_[A9T]_T4.1 (ssRNA)
# RNA: B1 RNA with A32U, C33G, U34G, G35U, G36U
# Target: T1, PUF4 RNA-binding domain
# Experiment: Mg; RNA-MaP; 20 mM Na-HEPES pH 7.4, 30 mM KOAc, 0.75 mM MgCl2, 0.1% Tween-20, 5% glycerol, 0.1 mg/mL BSA, 2 mM DTT; 25 C; 0.0125-409.6 nM protein
# Conditions: tags: N-His6-TEV cleaved; C-SNAP kept, Cy3B-labelled; label: tethered on chip by stalled RNA polymerase
row,Binder,Kd
1,UCUCUUCGUAUAUUAUCUCUU (ssRNA) [Ia_S1_P4E.1_K4.1_C4.1_H4.1_[T1C]_A4.1_F4.1_T4.1],20.9 nM
2,UCUCUUUGUAACUAUCUCUU (ssRNA) [Ic_S1_P3E.1_K3.1_C3.1_H3.1_A3.1_[T5A]_[A6C]_F3.1_T3.1],271 nM
3,UCUCUUUGUACUUAUCUCUU (ssRNA) [Ic_S1_P3E.1_K3.1_C3.1_H3.1_A3.1_[T5C]_[A6T]_F3.1_T3.1],66.4 nM
4,UCUCUUUGUAAGUAUCUCUU (ssRNA) [Ic_S1_P3E.1_K3.1_C3.1_H3.1_A3.1_[T5A]_[A6G]_F3.1_T3.1],1780 nM
5,UCUCUUUGUAUAUGGUCUCUU (ssRNA) [Ib_S1_P4E.1_K4.1_C4.1_H4.1_A4.1_F4.1_[T8G]_[A9G]_T4.1],47.2 nM
6,B1,701 nM
7,B2,21 nM
8,B3,283 nM
9,B4,56 nM
10,B5,48 nM
11,B6,335 nM
12,B7,1670 nM
13,B8,23.4 nM
14,B9,67.7 nM
15,B10,648 nM
16,B11,404 nM
17,B12,518 nM
18,B13,8.85 nM
19,B14,57.8 nM
20,B15,29.3 nM
21,B16,22 nM
22,B17,324 nM
23,B18,1140 nM
24,B19,22.4 nM
25,B20,65.2 nM
26,B21,128 nM
27,B22,14.6 nM
28,B23,946 nM
29,B24,224 nM
